From the supplement of paper PMC9112550, “Optimization of the antimicrobial peptide Bac7 by deep mutational scanning” (BMC Biology, 2022)

System: Escherichia coli TOP10
Assay: shrunken log2 fold change of peptide-encoding DNA abundance (4.5 h post-induction vs induction); higher = less antimicrobial activity (less host growth inhibition)
Conditions: time post-induction: 4.5 h; library: site-saturation at positions 5, 18, 19, 20
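Further: peptides expressed intracellularly from a pBAD plasmid library in pooled LB shake-flask culture, induced with 0.3% L-arabinose, DNA abundance read by NGS, three biological replicates, DESeq2 with apeglm shrinkage.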

Sequence | shrunken log2 fold change
RRIRARPPRLPRPRPRPPNLPRP | 0.342
RRIRTRPPRLPRPRPRPRHQPRP | -0.154
RRIRDRPPRLPRPRPRPRWTPRP | 0.289
RRIRTRPPRLPRPRPRPGLHPRP | -0.102
RRIRFRPPRLPRPRPRPTHTPRP | 0.186
RRIRMRPPRLPRPRPRPHLSPRP | -0.0805
RRIRVRPPRLPRPRPRPYFPPRP | 0.109
RRIRDRPPRLPRPRPRPKASPRP | 0.224
RRIRGRPPRLPRPRPRPPVRPRP | 0.859
RRIRCRPPRLPRPRPRPRCWPRP | 0.502
RRIRTRPPRLPRPRPRPLELPRP | -0.176
RRIRVRPPRLPRPRPRPWIRPRP | -0.151
RRIRYRPPRLPRPRPRPNFPPRP | -0.313
RRIRVRPPRLPRPRPRPHWVPRP | -0.152
RRIRCRPPRLPRPRPRPRHGPRP | 0.116
RRIRQRPPRLPRPRPRPFTTPRP | -0.0246
RRIRARPPRLPRPRPRPDVYPRP | 0.152
RRIRARPPRLPRPRPRPQHVPRP | 0.0233
RRIRLRPPRLPRPRPRPDWWPRP | 0.0919
RRIRYRPPRLPRPRPRPEISPRP | -0.00407
RRIRGRPPRLPRPRPRPPTGPRP | 0.741
RRIRSRPPRLPRPRPRPLMKPRP | 0.0556
RRIRIRPPRLPRPRPRPFQLPRP | 0.0333
RRIRMRPPRLPRPRPRPFWSPRP | -0.123
RRIRQRPPRLPRPRPRPNKKPRP | -0.0406

Sequence | shrunken log2 fold change
RRIRYRPPRLPRPRPRPRGLPRP | -0.0424
RRIRKRPPRLPRPRPRPLIMPRP | -0.376
RRIRLRPPRLPRPRPRPHEQPRP | 0.00509
RRIRPRPPRLPRPRPRPLGIPRP | -0.0635
RRIRMRPPRLPRPRPRPNDLPRP | 0.0853
RRIRMRPPRLPRPRPRPWFLPRP | 0.0242
RRIRGRPPRLPRPRPRPKDLPRP | -0.0839
RRIRYRPPRLPRPRPRPKFDPRP | -0.138
RRIRKRPPRLPRPRPRPQPHPRP | 0.554
RRIRRRPPRLPRPRPRPRQCPRP | 0.596
RRIRFRPPRLPRPRPRPSTAPRP | -0.0915
RRIRKRPPRLPRPRPRPQTNPRP | 0.271
RRIRKRPPRLPRPRPRPEIKPRP | 0.977
RRIRGRPPRLPRPRPRPGNAPRP | 0.478
RRIRCRPPRLPRPRPRPKTNPRP | 0.00906
RRIRSRPPRLPRPRPRPVGVPRP | 0.0685
RRIRLRPPRLPRPRPRPNRPPRP | -0.0609
RRIRTRPPRLPRPRPRPSYAPRP | -0.274
RRIRDRPPRLPRPRPRPPCTPRP | 0.00986
RRIRARPPRLPRPRPRPIARPRP | 1.01
RRIRWRPPRLPRPRPRPQHIPRP | -0.736
RRIRDRPPRLPRPRPRPITKPRP | 0.283
RRIRFRPPRLPRPRPRPCAYPRP | 2.21
RRIRPRPPRLPRPRPRPSYNPRP | -0.671
RRIRGRPPRLPRPRPRPPPKPRP | 1.7

Sequence | shrunken log2 fold change
RRIRERPPRLPRPRPRPPILPRP | -0.471
RRIRIRPPRLPRPRPRPSTVPRP | -0.566
RRIRWRPPRLPRPRPRPVYWPRP | 0.14
RRIRIRPPRLPRPRPRPKTLPRP | -0.229
RRIRCRPPRLPRPRPRPGQAPRP | -0.0147
RRIRMRPPRLPRPRPRPIYWPRP | -0.0918
RRIRQRPPRLPRPRPRPPWTPRP | 0.0238
RRIRNRPPRLPRPRPRPCPLPRP | 0.011
RRIRKRPPRLPRPRPRPLNVPRP | 0.252
RRIRCRPPRLPRPRPRPDGVPRP | 0.125
RRIRARPPRLPRPRPRPWHGPRP | 0.0697
RRIRIRPPRLPRPRPRPHWTPRP | 0.0591
RRIRCRPPRLPRPRPRPAMYPRP | -0.265
RRIRPRPPRLPRPRPRPNRTPRP | -0.0847
RRIRLRPPRLPRPRPRPNRLPRP | -0.0858
RRIRERPPRLPRPRPRPEWGPRP | 0.23
RRIRFRPPRLPRPRPRPHSTPRP | -0.0436
RRIRARPPRLPRPRPRPANRPRP | 0.467
RRIRDRPPRLPRPRPRPTKYPRP | -0.286
RRIRDRPPRLPRPRPRPLKWPRP | 0.0491
RRIRCRPPRLPRPRPRPKMLPRP | -0.0357
RRIRWRPPRLPRPRPRPSNVPRP | 0.108
RRIRRRPPRLPRPRPRPSNNPRP | -0.303
RRIRCRPPRLPRPRPRPNRPPRP | -0.0846
RRIRHRPPRLPRPRPRPSAMPRP | 0.06

Sequence | shrunken log2 fold change
RRIRCRPPRLPRPRPRPLILPRP | -0.373
RRIRWRPPRLPRPRPRPLQYPRP | -0.133
RRIRRRPPRLPRPRPRPCCEPRP | 0.122
RRIRDRPPRLPRPRPRPFPQPRP | 0.0191
RRIRQRPPRLPRPRPRPTSNPRP | -0.64
RRIRGRPPRLPRPRPRPMNVPRP | -0.176
RRIRQRPPRLPRPRPRPAVEPRP | 0.149
RRIRGRPPRLPRPRPRPPACPRP | 1.36
RRIRLRPPRLPRPRPRPESAPRP | 0.228
RRIRIRPPRLPRPRPRPRCMPRP | -0.284
RRIRGRPPRLPRPRPRPEKYPRP | 0.172
RRIRWRPPRLPRPRPRPAICPRP | -0.0928
RRIRIRPPRLPRPRPRPDPWPRP | 0.0621
RRIRSRPPRLPRPRPRPNISPRP | 0.00233
RRIRERPPRLPRPRPRPNCQPRP | -0.0295
RRIRARPPRLPRPRPRPKPIPRP | 0.319
RRIRCRPPRLPRPRPRPKNMPRP | -0.727
RRIRQRPPRLPRPRPRPDQQPRP | 0.0334
RRIRGRPPRLPRPRPRPQITPRP | 0.25
RRIRERPPRLPRPRPRPCLMPRP | -0.0535
RRIRWRPPRLPRPRPRPQKPPRP | 0.0546
RRIRGRPPRLPRPRPRPWEPPRP | 0.177
RRIRNRPPRLPRPRPRPRTTPRP | -0.0126
RRIRIRPPRLPRPRPRPDKTPRP | -0.0467
RRIRGRPPRLPRPRPRPKETPRP | -0.0578

Sequence | shrunken log2 fold change
RRIRWRPPRLPRPRPRPNYLPRP | -1
RRIRIRPPRLPRPRPRPFYVPRP | -1.11
RRIRMRPPRLPRPRPRPLEWPRP | 0.31
RRIRMRPPRLPRPRPRPVFCPRP | 0.388
RRIRARPPRLPRPRPRPRLPPRP | 0.667
RRIRFRPPRLPRPRPRPYVTPRP | -0.148
RRIRQRPPRLPRPRPRPMGSPRP | -0.0869
RRIRDRPPRLPRPRPRPAYGPRP | -0.11
RRIRPRPPRLPRPRPRPMEIPRP | -0.00192
RRIRWRPPRLPRPRPRPITKPRP | 0.258
RRIRVRPPRLPRPRPRPLWYPRP | -0.263
RRIRARPPRLPRPRPRPTYSPRP | -0.204
RRIRQRPPRLPRPRPRPLSFPRP | -0.415
RRIRMRPPRLPRPRPRPAMHPRP | 2.86
RRIRTRPPRLPRPRPRPDTWPRP | 0.0221
RRIRWRPPRLPRPRPRPSWHPRP | 0.0186
RRIRTRPPRLPRPRPRPIRSPRP | 0.0601
RRIRKRPPRLPRPRPRPCYIPRP | -0.0235
RRIRSRPPRLPRPRPRPAQVPRP | 0.09
RRIRLRPPRLPRPRPRPDSDPRP | -0.0524
RRIRVRPPRLPRPRPRPKDQPRP | 0.0584
RRIRKRPPRLPRPRPRPQIWPRP | 0.138
RRIRSRPPRLPRPRPRPEGEPRP | 0.809
RRIRSRPPRLPRPRPRPHDYPRP | 0.0635
RRIRRRPPRLPRPRPRPDTFPRP | 0.025
